According to patent US20240352121A1, “LAIR-1 AGONISTIC ANTIBODIES AND METHODS OF USE THEREOF” (NEXTCURE, INC., priority 2023, published 2024):

Tests used:
[1] = tested on: blood leukocytes from healthy (non-AML) donors; assay: Ex vivo depleting assay, healthy donor blood leukocytes; type: cell-based, human; conditions: even in the presence of collagen ECM
Procedure: Fresh whole blood was RBC-depleted using the EasySep™ RBC Depletion Reagent (StemCell, Vancouver, BC) following the manufacturer's protocol. Alternatively, frozen PBMCs were thawed in pre-warmed cRPMI media. Cell number was determined by VI-Cell XR cell counter. 2e5 cells per well were plated into 96-well plates lacking or containing 50 μg/mL pre-coated human Collagen I (StemCell, Vancouver, BC) in 200 μL of cRPMI containing 10 μg/mL of soluble LAIR-1 mAb or isotype control antibody (NP782 (NextCure, Beltsville, MD) or InVivoMAb recombinant human IgG1 Fc (BioXcell, Lebanon, NH)). Plates were centrifuged at 100×g for 2 minutes, then incubated for 20 hours at 37° C. in a TC incubator. At the end of incubation period, plates were centrifuged at 500×g for 4 min. Cells were resuspended and then transferred to a 96-well round-bottom plate for cell staining and flow cytometry as described above.

human LAIR-1 = assay: UT-140 LAIR-1 reporter cell activation (agonism); type: cell-based; conditions: upon engagement and crosslinking
human LAIR-1, sequence (as listed by the source): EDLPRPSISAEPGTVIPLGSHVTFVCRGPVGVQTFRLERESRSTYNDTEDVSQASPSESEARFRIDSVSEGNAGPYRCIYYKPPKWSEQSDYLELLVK
Procedure: For cell binding assays, 5e4 UT-140 cells or mouse LAIR-1-transfected 293T cells per well were plated in 200 μL PBS in a 96-well round bottom plate, centrifuged for 4 minutes at 500×g for a single wash, and blocked for 10 minutes on ice with flow cytometry buffer (PBS+2% FBS+0.1 mM EDTA) containing 1:50 dilution of TruStain™ Fc block (Biolegend, San Diego, CA). Cells were subsequently stained for 30 min on ice with titrated concentrations of soluble AF647-labeled LAIR-1 mAb or AF647-labeled isotype control. Cells were then washed 3 times as previously described and binding was measured by flow cytometry using an Attune NXT flow cytometer. For reporter cell assays, flat-bottom 96-well TC plates were coated with 10 μg/mL per well of the indicated antibody in PBS or 2 μg/mL of ligand in 0.01N HCl overnight at 4° C. Wells were washed once with 200 μL sterile PBS. 5e4-to-1e5 cells per well were plated in 100 μL RPMIc containing titrated concentrations of LAIR-1 mAb or isotype control, then incubated overnight at 37° C. The next day, cells were transferred to a 96-well round-bottom plate, centrifuged for 4 minutes at 500×g, and resuspended in 200 μL of flow cytometry buffer. Cells were then centrifuged and resuspended for a total of 3 washes. GFP expression was measured by flow cytometry using an Attune NXT Flow Cytometer.

LAIR-1 = assay: Ligand (collagen) mediated LAIR-1 signaling blockade in UT-140 reporter cells; type: cell-based, human
Procedure: FIGS. 24A-24C display h11B3 LAIR-1 mAbs, containing a variable light chain of SEQ ID NO: 16 and a variable heavy chain of SEQ ID NO:27, binds LAIR-1 and blocks its functional signaling triggered by collagen-I in UT-140 reporter cells. Seed 1e4 UT140 reporter cells/100 μl in 96-well flat bottom plate. LAIR1 signaling was induced by 10 μg/ml coated collagen treatment. Blocking of LAIR1 signaling by such h11B3 LAIR-1 mAbs was determined by addition of different concentrations of such h11B3 LAIR-1 mAbs in 100 μL per well. Cultures were maintained for 20 hours, and the GFP was read on flow cytometry.
FIGS. 25A-25B display h11B3 LAIR-1 mAbs, containing a variable light chain of SEQ ID NO: 16 and a variable heavy chain of SEQ ID NO:27, blocks collagen-1 signaling. […] Reporter activation was quantified by flow cytometry. […]
For cell binding assays, 5e4 UT-140 cells or mouse LAIR-1-transfected 293T cells per well were plated in 200 μL PBS in a 96-well round bottom plate, centrifuged for 4 minutes at 500×g for a single wash, and blocked for 10 minutes on ice with flow cytometry buffer (PBS+2% FBS+0.1 mM EDTA) containing 1:50 dilution of TruStain™ Fc block (Biolegend, San Diego, CA). […] Cells were then washed 3 times as previously described and binding was measured by flow cytometry using an Attune NXT flow cytometer. […] GFP expression was measured by flow cytometry using an Attune NXT Flow Cytometer.

MV4-11 cells [2] = assay: Phospho-array on in vivo grown MV4-11 cells, subcutaneous CDX model; set-up: species or system NSG mice; conditions: 10 mg/kg weekly i.p.
Procedure: NSG mice were injected with 2e6 THP-1 luciferase cells or 2e6 MV4-11-luciferase cells via tail vein injection. Leukemia progression was quantified by i.p. injection of 100 μL bioluminescent substrate and IVIS imaging 8 minutes post injection. Progression was assessed weekly staring on Day 7 post-challenge. 10 mg/kg mab treatment was performed by i.p injection starting on day 8 and continuing twice a week until the end of the study. For the subcutaneous engraftment model, NSG mice were subcutaneously injected on the right flank with 5e6 MV4-11-Luc-LAIR-1^OE cells. Mice were treated by weekly i.p. injection of 10 mg/kg mAb. Tumor growth was measured by calipers twice weekly until end point.

MV4-11 cells [3] = assay: Digital spatial imaging of bone and spleen of MV4-11 CDX mice; type: in vivo, NSG mice
From the text: FIGS. 6A-6D display LAIR-1 signaling restricts AML survival signaling pathways in vivo. […] N=3 mice per group. […] N=6 mice per group. FIG. 6C is representative images of CDX mouse bones stained with DAPI and anti-human CD45 used to quantify the number of MV4-11 cells in the indicated region of interest (ROI) (highlighted). ROI area is equal between samples. […] Read counts are normalized to Histone H3 and ribosomal protein S6. N=3-11 quantified tissue regions across 2 isotype-treated or 2 LAIR-1 mAb-treated mice. Error bars represent standard error of mean. P values determined by Student's T test.
Protocols and reagents from NanoString were used for GeoMx digital spatial imaging (DSP). Briefly, formalin-fixed paraffin-embedded (FFPE) sections of tumor and spleen were deparaffinized and rehydrated, antigen-retrieved in citrate buffer, blocked, and stained with the Human Immune Profiling Core and Cell Death Panel overnight at 37 degrees C. Anti-HCD45-Alexaflour 647 antibody (NBP2-34528AF647 from Novus Biologicals, Centennial, CO) was used as a morphology marker at 5 μg/mL to identify MV4-11 cells. After washing, slides were fixed in 4% paraformaldehyde and nuclei were stained with Syto13. Slides were scanned and regions of interest (human CD45 regions) were acquired on a GeoMx DSP instrument (Nanostring, Seattle, WA). Approximately 5 regions of interest (ROIs) were collected per tissue, and samples were multi-plexed and processed on the nCounter Prep Station and Digital Analyzer as recommended. Data were analyzed on DSP Analysis software. Following quality control, data were normalized to housekeeping genes, and statistics were performed using a linear mixed model with a Benjamin-Hochberg correction.

B1: LAIR-1 mAb: humanized agonist anti-LAIR-1 mAb, IgG1 backbone; h11B3 VL-2 (SEQ ID NO: 16), h11B3 VH-3 (SEQ ID NO: 27) (antibody, V domains shown)
VH: EVQLVESGGGLVQPGGSLKLSCAASGFTFNTNAMYWVRQAPGKGLEWVGRIRSKSSNYATYYAASVKGRFTISRDDSKNTLYLQMNSLKTEDTAVYYCVRGGSGFFAYWGQGTLVTVSS
VL: DIQMTQSPSSLSASLGDRVTITCKASEDIYIRLAWYQQKPGKAPRLLISTATSLETGVPSRFSGSGSGTDYTFTISSLQPEDIATYYCQQYWSTPYTFGGGTRLEIK
modifications: IgG1 constant regions; Synthetic: h11B3 VH-3; Synthetic: h11B3 VL-2
Q: What does the source list for B1?
A: depletion of blood leukocytes [1]: did not deplete; human LAIR-1 signaling (agonist) (human LAIR-1): capable of inducing human LAIR-1 signaling; collagen binding to LAIR-1 (LAIR-1): blocks collagen binding; MAPK pathway (MV4-11 cells [2]): significantly suppressed; activation of mTORC, AKT, and NF-kB (MV4-11 cells [2]): inhibited activation; AML cells (human CD45+ cells) in the bones (MV4-11 cells [3]; day 22 post-engraftment): reduction; anti-apoptotic BCL-XL (MV4-11 cells [3]; in bones but not the spleen): decreased levels; anti-apoptotic uncleaved PARP (MV4-11 cells [3]; in bones but not the spleen): decreased levels
